The target in the experiment is SARS-CoV-2 (2019-nCoV) Spike S1-His Recombinant Protein (Sino Biological Catalog Number 40591-V08H) (SARS-CoV-2) (UniProt P0DTC2).

Chain of Galanthus nivalis agglutinin (GNA) (P30617 24-128 limits assumed): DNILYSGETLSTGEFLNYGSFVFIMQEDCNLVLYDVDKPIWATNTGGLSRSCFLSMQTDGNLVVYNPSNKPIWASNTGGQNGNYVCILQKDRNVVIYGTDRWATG

Turning to “Galanthus nivalis agglutinin (GNA) (from UniProt P30617 24-128)”, the percent of S1 depleted from solution at 15 minutes is greater than 90%.

For the origin of these results see patent US12409260.
